As usually defined, the Km is the substrate concentration at which the rate is half of its maximum. The term kcat denotes the maximal rate divided by the concentration of active sites.

We go through one protein from article PMC12307654, “Time-dependent catalytic activity in aging condensates” (Nature Communications, 2025).

Substrate in the data set: C=C(O[C@H]1C=C[C@H](C(=O)CCC(=O)O)[C@@H](C(=O)O)[C@@H]1O)C(=O)O
Nature of the data set: purified protein. The class given is biochemical, Escherichia coli. The conditions noted are these: free enzyme without scaffold, 20 mM Tris, 150 mM NaCl, 0.5 mM AEBSF, 0.1 mM DTT, 0.1% Triton X-100, 10% glycerol, pH 7.4, room temperature.

B1: MenH-RIDD (Escherichia coli K-12) (protein)
chain: MILHAQAKHGKPGLPWLVFLHGFSGDCHEWQEVGEAFADYSRLYVDLPGHGGSAAISVDGFDDVTDLLRKTLVSYNILDFWLVGYSLGGRVAMMAACQGLAGLCGVIVEGGHPGLQNAEQRAERQRSDRQWVQRFLTEPLTAVFADWYQQPVFASLNDDQRRELVALRSNNNGATLAAMLEATSLAVQPDLRANLSARTFAFYYLCGERDSKFRALAAELAADCHVIPRAGHNAHRENPAGVIASLAQILRF
notes: full-length MenH fused to the RIDD docking peptide tag; gene from laboratory stock; free enzyme without FIB1-GFP-RIAD scaffold
Turning to B1, the Km was 12.75 ± 1.68 µM and the kcat is 1.536 ± 0.0972 s⁻¹.
